Patent US7521540B2, “CYR61 compositions and methods” (Munin Corporation, priority 1996, dated 2009)

Assays:
NIH 3T3 fibroblasts = test: Thymidine incorporation (mitogen potentiation), NIH 3T3; format: cell-based, mouse
Description: More specifically, NIH 3T3 fibroblast cells were plated on 24-well plates at 3×10^4 cells/well and grown in DMEM with 10% fetal bovine serum (Intergen Co., Purchase, N.Y.) for 3-4 days and incubated with medium containing 0.2% FBS for the following 48 hours. The following compounds, at the parenthetically noted final concentrations, were then added to the plated cells in fresh DMEM containing 0.2% fbs and [^3H]-thymidine (1 μCi/ml final concentration; ICN Biomedicals, Inc., Costa Mesa, Calif.): bFGF (15 ng/ml), PDGF-BB (30 ng/ml), and murine Cyr61 (0.5-5 μg/ml). These compounds were added to individual plates according to the following pattern: 1) no supplementation; 2) murine Cyr61; 3) bFGF; 4) murine Cyr61 and bFGF; 5) PDGF-BB; and 6) murine Cyr61 and PDGF. After 18-20 hours of incubation, cells were washed with PBS and fixed with 10% trichloroacetic acid. DNA was dissolved in 0.1 N NaOH and thymidine incorporation was determined. […] Without any supplements, 3T3 cells incorporated approximately 1.8×10^4 cpm of [^3H]-thymidine, in the presence or absence of Cyr61. Cells exposed to bFGF alone incorporated about 1.2×10^5 cpm; cells contacting bFGF and murine Cyr61 incorporated 2×10^5 cpm. Cells receiving PDGF-BB incorporated about 1.2×10^5 cpm; and cells exposed to PDGF-BB and murine Cyr61 incorporated approximately 2.4×10^5 cpm.
(§1) DNA synthesis for HUVE cells and NIH 3T3 fibroblasts was measured by thymidine incorporation as described previously (Kireeva et al., [1996]) with minor modifications. HUVE cells were grown in 24-well plates to a subconfluent state, serum-starved for 24 hours and treated with F12K medium containing 10% fetal bovine serum (FBS), 1 μCi/ml [^3H]-thymidine and 10 ng/ml basic Fibroblast Growth Factor (bFGF) (Gibco-BRL, Inc.) with various concentrations of Cyr61 and Fisp12 as indicated. NIH 3T3 fibroblasts were grown to subconlfluence, serum-starved for 48 hours, and treated with Minimal Essential Medium (MEM) containing 0.5% FBS, 1 μCi/ml [^3H]-thymidine, bFGF and various concentrations of Cyr61 or Fisp12. Thymidine incorporation into the trichloroacetic acid-insoluble fraction was determined after 24 hour incubation. Logarithmically grown mink lung epithelial cells (Mv1lu, CCL64) were treated with various concentrations of TGF-β1 (Gibco-BRL) and 2 μg/ml of Cyr61 or Fisp12 for 18 hours; [^3H]-thymidine was then added to 1 μCi/ml for 2 hours. Thymidine incorporation was determnined as described above.

[1] = tested on: mink lung epithelial (Mv1Lu) cells; test: Fisp12 cell attachment assay, Mv1Lu cells; format: cell-based; conditions: coating 20 μg/ml
Description: The capacity of Fisp12 to affect cell adhesion was also investigated. Fisp12 cell attachment assays were performed essentially as described (Oliver et al., [1989]). 96-well immunological plates were coated for 16 hours at 4° C. with 20 μg/ml Cyr61, Fisp12 or fibronectim (Gibco BRL) in PBS containing 0.1 mg/ml BSA and blocked with 10 mg/ml BSA for 1 hour at room temperature. HUVE cells were plated at 10^4 cells/well in F12K media with 10% FBS (Hyclone Laboratories, Inc., Logan, Utah); NIH 3T3 fibroblasts were plated at 3×10^4 cells/well and Mv1Lu cells were plated at 5×10^4 cells/well in minimal essential medium (MEM) with 10% FBS. After 1 hour incubation cells were fixed, stained with methylene blue and quantified as described (Oliver et al., [1989]). Cell spreading was examined on cells plated on 100 mm polystyrene petri dishes coated with 2.5 ml of a 20 μg/ml solution of Cyr61, Fisp12 or fibronectin. 10^7 cells were plated on each dish and cell spreading was analyzed 90 minutes after plating by microscopy at 100× magnification.

[2] = tested on: mink lung epithelial cells (Mv1lu, CCL64); test: TGF-β inhibition of DNA synthesis; format: cell-based; conditions: 2 μg/ml, 18 hours
Description: as §1

αllbβ3 = target: T1, αllbβ3 (Homo sapiens, UniProt P05106+P08514); test: Solid-phase binding assay with purified integrin; conditions: for Kd: RGD-affinity purified αllbβ3, immobilized protein, read-out: half-saturation of activated αllbβ3 binding
T1 construct: from tissue; host or cells: outdated human platelets
Description: In these experiments, activated and unactivated αllbβ3 were purified from platelet lysates. Activated αllbβ3 was purified by RGD affinity chromatography, as described (Knezevic et al., J. Biol. Chem. 271:16416-16421 [1996]). Briefly, outdated human platelets were isolated by differential centrifugation and solubilized in lysis buffer (10 mM HEPES, pH 7.4, 0.15 M NaCl, containing 1 mM CaCl2, 1 mM MgCl2 100 μM leupeptin, 1 mM phenylmethylsulfonyl fluoride, 10 mM-ethylmaleimide, and 50 mM octylglucoside). The octylglucoside extract was incubated with 1 ml GRGDSPK-coupled Sepharose 4B overnight at 4° C. After washing with 15 ml column buffer (same as lysis buffer except it contained 25 mM octylglucoside), bound αllbβ3 was eluted with 1.7 mM H12 (2 ml) in column buffer. The H12 eluate was applied to a Sephacryl S-300 High Resolution column (1.5×95 cm), and αllbβ3 was eluted with 10 mM HEPES, pH 7.4, 0.15 M NaCl, 1 mM CaCl2, 1 mM MgCl2 and 25 mM octylglucoside.
Unactivated αllbβ3 was isolated by the method of Fitzgerald et al., Anal. Biochem. 151:169-177 (1985), with slight modifications. The flow-through fraction of the GRGDSPK-Sepharose column was applied to a concanavalin A-Sepharose 4B column (1×20 cm). Unbound proteins were washed with 50 ml column buffer, and bound αllbβ3 was then eluted with 100 mM mannose dissolved in column buffer. Fractions containing αllbβ3 were further purified on a Sephacryl S-300 High Resolution column
To perform the solid-phase binding assay, purified αllbβ3 was added to wells coated with either Cyr61 or Fisp12 (mCTGF) in the presence or absence of inhibitors and binding was allowed to proceed for 3 hours at 37° C. Unbound receptor was removed and the wells wee washed twice with HEPES-Tyrode's Buffer. The binding of purified αllbβ3 to Cyr61 or Fisp12/mCTGF immobilized onto microtiter wells was detected with ^125I-mAb15.

B1: Fisp12: Cysteine-rich murine protein, SEQ ID NO:6, mouse ortholog of CTGF (protein, listed as Mus musculus)
chain: MLASVAGPISLALVLLALCTRPATGQDCSAQCQCAAEAAPHCPAGVSLVLDGCGCCRVCAKQLGELCTERDPCDPHKGLFCDFGSPANRKIGVCTAKDGAPCVFGGSVYRSGESFQSSCKYQCTCLDGAVGCVPLCSMDVRLPSPDCPFPRRVKLPGKCCKEWVCDEPKDRTAVGPALAAYRLEDTFGPDPTMMRANCLVQTTEWSACSKTCGMGISTRVTNDNTFCRLEKQSRLCMVRPCEADLEENIKKGKKCIRTPKIAKPVKFELSGCTSVKTYRAKFCGVCTDGRCCTPHRTTTLPVEFKCPDGEIMKKNMMFIKTCACHYNCPGDNDIFESLYYRKMYGDMA
In the case of B1, the “enhancement of FGF-induced DNA synthesis” value (NIH 3T3 fibroblasts; NIH 3T3 fibroblasts) is reported as “enhance DNA synthesis induced by fibroblast growth factor”, the “mitogenic activity by itself” value (NIH 3T3 fibroblasts; any tested assay conditions) is reported as “did not exhibit any mitogenic activity” and the “cell attachment to coated dishes” value [1] is reported as “promoted the attachment”. The “effect on TGF-β inhibition of DNA synthesis” value [2] was “enhanced the ability of TGF-β to inhibit DNA synthesis”, the “binding of activated versus unactivated αllbβ3” value (αllbβ3) was “greater binding of activated versus unactivated” and the Kd (αllbβ3) was 15 nM.

B2: Cyr61: Cysteine-rich ECM signaling protein; murine sequence SEQ ID NO:2, recombinant from Baculovirus-infected Sf9 cells (protein, listed as Mus musculus)
chain: MSSSTFRTLAVAVTLLHLTRLALSTCPAACHCPLEAPKCAPGVGLVRDGCGCCKVCAKQLNEDCSKTQPCDHTKGLECNFGASSTALKGICRAQSEGRPCEYNSRIYQNGESFQPNCKHQCTCIDGAVGCIPLCPQELSLPNLGCPNPRLVKVSGQCCEEWVCDEDSIKDSLDDQDDLLGLDASEVELTRNNELIAIGKGSSLKRLPVFGTEPRVLFNPLHAHGQKCIVQTTSWSQCSKSCGTGISTRVTNDNPECRLVKETRICEVRPCGQPVYSSLKKGKKCSKTKKSPEPVRFTYAGCSSVKKYRPKYCGSCVDGRCCTPLQTRTVKMRFRCEDGEMFSKNVMMIQSCKCNYNCPHPNEASFRLYSLFNDIHKFRD
In the case of B2, the “[3H]-thymidine incorporation with PDGF-BB” value (NIH 3T3 fibroblasts; PDGF-BB 30 ng/ml plus murine Cyr61 0.5-5 μg/ml) is reported as “approximately 2.4×10^5 cpm”, the “[3H]-thymidine incorporation with bFGF” value (NIH 3T3 fibroblasts; bFGF 15 ng/ml plus murine Cyr61 0.5-5 μg/ml) is reported as 2×10^5 cpm and the “minimum concentration for enhancement of bFGF- or PDGF-BB-induced thymidine incorporation” value (NIH 3T3 fibroblasts; either cell type (NIH 3T3 or HUVE)) is reported as 0.5 to 1.0 µg/mL. The “[3H]-thymidine incorporation, no growth factor” value (NIH 3T3 fibroblasts; presence or absence of Cyr61) was “approximately 1.8×10^4 cpm”, the “cell attachment to coated dishes” value [1] was “promoted the attachment” and the “effect on TGF-β inhibition of DNA synthesis” value [2] was “enhanced the ability of TGF-β to inhibit DNA synthesis”. For the same molecule, the “binding of activated versus unactivated αllbβ3” value (αllbβ3) was “greater binding of activated versus unactivated” and the Kd (αllbβ3) was 25 nM.
